According to the Human Domainome abundance scans (Beltran et al. 2025):
± gives the uncertainty stated by the source.

B1: Double-stranded RNA-specific adenosine deaminase, residues 296 to 358; numbered along this chain, P55265 (parent)
chain: MAEIKEKICDYLFNVSDSSALNLAKNIGLTKARDINAVLIDMERQGDVYRQGTTPPIWHLTDK
B2: Gamma-crystallin D, residues 90 to 170; numbered along this chain, P07320 (parent)
chain: IRLYEREDYRGQMIEFTEDCSCLQDRFRFNEIHSLNVLEGSWVLYELSNYRGRQYLLMPGDYRRYQDWGATNARVGSLRRV

Variants of: B1
Test: abundance fitness (aPCA) (normalised: wild type 0, dead -1); higher = more abundant; growth selection in yeast, the domain comes from the species named
Conditions: Homo sapiens

| Variant | abundance fitness |
| --- | --- |
| T61S | -0.052 ± 0.044 |
| G46K | -0.448 ± 0.082 |
| A2R | 0.004 ± 0.048 |
| K25M | -0.282 ± 0.072 |
| D62P | -0.333 ± 0.094 |
| D62Y | -0.437 ± 0.077 |
| D41W | -1.12 ± 0.19 |
| M1G | -0.263 ± 0.084 |
| P55V | -0.298 ± 0.051 |
| I57V | -0.108 ± 0.048 |
| M42V | -0.774 ± 0.079 |
| M42I | -1.03 ± 0.13 |
| M42S | -0.613 ± 0.061 |
| L21C | -0.136 ± 0.056 |
| L23F | -1.03 ± 0.16 |
| I35M | -0.523 ± 0.075 |
| N14T | 0.086 ± 0.051 |
| D10I | -0.502 ± 0.16 |
| N22P | -0.219 ± 0.18 |
| Q51D | 0.22 ± 0.072 |
| N26C | -0.338 ± 0.082 |
| K31A | -0.098 ± 0.045 |
| K31R | -0.006 ± 0.036 |
| A37G | -0.332 ± 0.043 |
| A37E | -0.024 ± 0.056 |
| I8H | -0.766 ± 0.2 |
| R50A | -0.238 ± 0.061 |
| Y49F | -0.167 ± 0.064 |
| L60V | -0.516 ± 0.062 |

Variants of: B2
Test: as above
Conditions: Homo sapiens

| Variant | abundance fitness |
| --- | --- |
| R74C | 0.012 ± 0.16 |
| R74F | -0.023 ± 0.13 |
| R74A | -0.015 ± 0.085 |
| R74K | -0.134 ± 0.15 |
| R74S | -0.011 ± 0.078 |
| R74D | 0.018 ± 0.21 |
| R74N | 0.098 ± 0.21 |
| R74Y | -0.092 ± 0.26 |
| R74P | 0.005 ± 0.093 |
| R74E | 0.132 ± 0.14 |
| R74Q | -0.02 ± 0.098 |
| R74W | -0.029 ± 0.11 |
| R74V | 0.028 ± 0.096 |
| R74L | -0.002 ± 0.071 |
| R74M | -0.224 ± 0.068 |
| R74G | -0.011 ± 0.07 |
| V75Y | -0.001 ± 0.23 |
| V75A | -0.017 ± 0.097 |
| V75D | -0.988 ± 0.25 |
| V75I | -0.201 ± 0.24 |
| V75T | -0.206 ± 0.13 |
| V75P | -0.011 ± 0.087 |
| V75R | -0.863 ± 0.14 |
| V75N | -0.205 ± 0.19 |
| V75C | -0.065 ± 0.093 |
| V75H | -0.742 ± 0.43 |
| V75W | -0.131 ± 0.11 |

| Variant | abundance fitness |
| --- | --- |
| V75F | -0.037 ± 0.18 |
| V75E | -1.04 ± 0.3 |
| V75G | -0.024 ± 0.073 |
| V75Q | -0.145 ± 0.075 |
| V75K | -0.683 ± 0.25 |
| V75M | -0.024 ± 0.12 |
| R63S | -0.037 ± 0.093 |
| R63M | 0.132 ± 0.29 |
| R63W | 0.031 ± 0.095 |
| R63I | 0.113 ± 0.21 |
| R63T | 0.039 ± 0.11 |
| R63N | -0.079 ± 0.31 |
| R63C | 0.097 ± 0.11 |
| R63A | 0.024 ± 0.065 |
| R63E | 0.09 ± 0.093 |
| R63L | 0.088 ± 0.12 |
| R63Q | 0.072 ± 0.15 |
| R63K | 0.061 ± 0.13 |
| R63P | -0.012 ± 0.09 |
| R63D | 0.129 ± 0.21 |
| R63F | 0.004 ± 0.17 |
| R79G | -0.032 ± 0.1 |
| R79M | 0.086 ± 0.22 |
| R79E | 0.113 ± 0.16 |
| R79S | 0.068 ± 0.093 |
| R79P | -0.93 ± 0.17 |
| R79T | -0.117 ± 0.11 |
